Source: IntAct's records for PubMed 21575865

B1: Transcriptional regulator ERG (Homo sapiens), P11308-1 (parent)
chain: MIQTVPDPAAHIKEALSVVSEDQSLFECAYGTPHLAKTEMTASSSSDYGQTSKMSPRVPQQDWLSQPPARVTIKMECNPSQVNGSRNSPDECSVAKGGKMVGSPDTVGMNYGSYMEEKHMPPPNMTTNERRVIVPADPTLWSTDHVRQWLEWAVKEYGLPDVNILLFQNIDGKELCKMTKDDFQRLTPSYNADILLSHLHYLRETPLPHLTSDDVDKALQNSPRLMHARNTDLPYEPPRRSAWTGHGHPTPQSKAAQPSPSTVPKTEDQRPQLDPYQILGPTSSRLANPGSGQIQLWQFLLELLSDSSNSSCITWEGTNGEFKMTDPDEVARRWGERKSKPNMNYDKLSRALRYYYDKNIMTKVHGKRYAYKFDFHGIAQALQPHPPESSLYKYPSDLPYMGSYHAHPQKMNFVAPHPPALPVTSSSFFAAPNPYWNSPTGGIYPNTRLPTSHMPSHLGTYY

Variants of: B1
Details: with prkdc_human PRKDC

| Variant | effect of a mutation on the interaction |
| --- | --- |
| Y356A | disrupting interaction |
